In article PMC2695768:

Biological target: influenza virus nucleoprotein (NP), A/Victoria/3/75, wild type (influenza A virus A/Victoria/3/75)
Assay: cryo-EM structure

influenza virus nucleoprotein (NP), A/Victoria/3/75, wild type (natural protein)
stoichiometry N: 9
